{"source": "patent US8158851B2", "about": "“Transgenic high tryptophan plants” (Monsanto Technology LLC, priority 2002, dated 2012)", "molecules": {"B1": {"name": "V48F (protein)", "chain": "MVTIIQDDGAETYETKGGIQVSRKRRPTDYANAIDNYIEKLDSHRGAFFSSNYEYPGRYTRWDTAIVDPPLGISCFGRKMWIEAYNGRGEVLLDFITEKLKATPDLTLGASSTRRLDLTVNEPDRVFTEEERSKIPTVFTALRAIVDLFYSSADSAIGLFGAFGYDLAFQFDAIKLSLARPEDQRDMVLFLPDEILVVDHYSAKAWIDRYDFEKDGMTTDGKSSDITPDPFKTTDTIPPKGDHRPGEYSELVVKAKESFRRGDLFEVVPGQKFMERCESNPSAISRRLKAINPSPYSFFINLGDQEYLVGASPEMFVRVSGRRIETCPISGTIKRGDDPIADSEQILKLLNSKKDESELTMCSDVDRNDKSRVCEPGSVKVIGRRQIEMYSRLIHTVDHIEGRLRDDMDAFDGFLSHAWAVTVTGAPKLWAMRFIEGHEKSPRAWYGGAIGMVGFNGDMNTGLTLRTIRIKDGIAEVRAGATLLNDSNPQEEEAETELKASAMISAIRDAKGTNSAATKRDAAKVGTGVKILLVDHEDSFVHTLANYFRQTGATVSTVRSPVAADVFDRFQPDLVVLSPGPGSPTDFDCKATIKAARARDLPIFGVCLGLQALAEAYGGELRQLAVPMHGKPSRIRVLEPGLVFSGLGKEVTVGRYHSIFADPATLPRDFIITAESEDGTIMGIEHAKEPVAAVQFHPESIMTLGQDAGMRMIENVVVHLTRKAKTKAA", "modifications": "An A. tumefaciens mutant."}, "B2": {"name": "S51C (protein)", "chain": "B1 chain with F48V, S51C", "modifications": "An A. tumefaciens mutant."}, "B3": {"name": "F298A (protein)", "chain": "B1 chain with F48V, F298A", "modifications": "An A. tumefaciens mutant."}, "B4": {"name": "V48Y (protein)", "chain": "B1 chain with F48Y", "modifications": "An A. tumefaciens mutant."}}, "key": {"soy seed": {"tested_on": "soy seed", "assay": "Free amino acid analysis of soy seed (tryptophan content)", "assay_type": "in vivo, Glycine max", "conditions": "R1 soy seeds expressing the mutant protein", "experimental": "Amino Acid Extraction: About 50 mg of crushed soy seed (5 mg of Arabidopsis) material was placed in each centrifuge vial. One milliliter of 5% trichloroacetic acid was added to each sample (100 μl for Arabidopsis). The samples were vortexed, and allowed to sit, with agitation, at room temperature for 15 min. They were then microcentrifuged for 15 min at 14000 rpm. Some of the supernatant was then removed, placed in a HPLC vial and sealed. Samples were kept at 4° C. in the analysis queue.\nAmino Acid Analysis: The reagents utilized for amino acid analysis included the OPA reagent (o-phthalaldehyde and 3-mercaptopropionic acid in borate buffer (Hewlett-Packard, PN 5061-3335)) where the borate buffer (0.4 N in water, pH 10.2). The analysis was performed using the Agilent 1100 series HPLC system as described in the Agilent Technical Publication, “Amino Acid Analysis Using Zorbax Eclipse-AAA Columns and the Agilent 1100 HPLC”, Mar. 17, 2000. First, 0.5 μl of the sample was derivatized with 2.5 μl of OPA reagent in 10 μl of borate buffer. Second, the derivative is injected onto a Eclipse XDB-C18 5 μm, 4.6×150 mm column using a flow rate of 1.2 ml/min. Amino acid concentrations were measured using fluorescence: excitation at 340 nm, emission at 450 nm. Elution was with a gradient of HPLC Buffers A and B according to Table A, where HPLC Buffer A was 40 mM Na2HPO4, pH=7.8 and HPLC Buffer B was 9:9:2::Methanol:Acetonitrile:Water.\nAmino acid standards were prepared from the dry chemicals, using all amino acids of interest. Proline analysis required an additional derivatization step with 9-fluorenylmethyl-chloroformate (FMOC). Amino acid standards were also sometimes purchased in concentrations ranging from 0 to 100 μg/ml. Samples were reported in μg/g of seed powder.\nMature R1 seed is produced and analyzed for free amino acid content using fluorescence detection as described in Agilent Technologies Technical Bulletin REV14. Five seeds are chosen for single seed analysis from each event. […] The highest levels of tryptophan have a negative impact on germination."}, "[1]": {"tested_on": "Agrobacterium tumefaciens AS", "assay": "Anthranilate synthase enzyme assay and kinetic analysis of purified enzymes", "assay_type": "biochemical", "conditions": "for Km: 25° C.", "experimental": "Agrobacterium tumefaciens AS wild type and mutant enzymes were expressed in E. coli as described in Example 1. The purification of all the Agrobacterium tumefaciens AS enzymes, including wild type and mutants thereof, was performed at 4° C. The cells (approximate wet weight of 1 g) were suspended in 20 ml of purification buffer (50 mM potassium phosphate, pH 7.3, 10 mM MgCl2, 10 mM 2-mercaptoethanol, 10% glycerol) and lysed by ultrasonication (Branson sonifier Cell Disruptor, W185). Supernatant was collected after centrifugation of the homogenate at 20,000×g for 15 min. The supernatant was subjected to ammonium sulfate fractionation (30 to 65% saturation). The precipitate was collected after centrifugation at 20,000×g for 15 min and dissolved in 3 ml of the purification buffer and then loaded as a whole on an Econo-Pac 10DG desalting column, pre-equilibrated with the same buffer. Fractions containing the enzyme were detected by the developed assay and pooled. The pooled enzyme (4.3 mls) was loaded on a 10 ml DEAF Sephacel (Pharmacia Biotech) column (1.5×7.5 cm) equilibrated with the same buffer. The column was washed with 30 ml of the purification buffer and the enzyme was eluted with 30 ml of 50 mM NaCl in the same buffer. Fractions containing high AS activity were pooled and precipitated by 65% ammonium sulfate saturation and isolated and desalted as above. Fractions containing the enzyme were pooled and stored at −80° C.\nThe standard assay for Agrobacterium tumefaciens AS was performed at 25° C. in an assay buffer containing 100 mM potassium phosphate, pH 7.0, 10 mM MgCl2, 1 mM dithiothreitol, 200 μM chorismate and 10 mM L-glutamine. The reaction was started by adding 30 μl of enzyme to the reaction mixture and mixing. The formation of anthranilate was directly monitored by the absorbance increase at 320 m for 3 minutes. Initial rate of reaction was calculated as unit absorbance increase per second based on the slope of the absorbance change over the reaction time. Km for chorismate (Km^Cho) was determined in the total volume of 1 ml assay buffer containing 100 mM potassium phosphate, pH 7.0, 10 mM MgCl2, 1 mM dithiothreitol with 10 mM L-glutamine and varying the concentration of chorismate between 2.5-100 μM chorismate. The Km for glutamine (Km^Gln) was determined in the total volume of 1 ml assay buffer containing 100 mM potassium phosphate, pH 7.0, 10 mM MgCl2, 1 mM dithiothreitol with 200 μM chorismate and varying the concentration of L-glutamine between 0.1-2 mM L-glutamine. IC50 for tryptophan (IC50^Trp) was determined with in the total volume of 1 ml assay buffer containing 100 mM potassium phosphate, pH 7.0, 10 mM MgCl2, 1 mM dithiothreitol, 10 mM L-glutamine, 200 μM chorismate and varying the concentration of L-tryptophan between 0.1-10 mM L-tryptophan. Kinetic parameters and IC50 of AS were calculated after fitting the data to a non-linear regression program (GraFit)."}}, "note": "Substitutions are numbered along the chain they refer to. Like-named read-outs stand apart in the source and are kept apart here."}
{"molecule": "B1", "values": [{"measurement": "amounts of tryptophan", "setting": "soy seed", "value": "very high amounts of tryptophan"}]}
{"molecule": "B2", "values": [{"measurement": "amounts of tryptophan", "setting": "soy seed", "value": "very high amounts of tryptophan"}]}
{"molecule": "B3", "values": [{"measurement": "Km", "setting": "[1]; pH 7.0, 200 μM chorismate, L-glutamine varied, read-out: Km^Gln", "value": 100, "unit": "µM"}, {"measurement": "Km", "setting": "[1]; pH 7.0, 10 mM L-glutamine, chorismate varied, read-out: Km^Cho", "value": 9.2, "unit": "µM"}, {"measurement": "IC50", "setting": "[1]; inhibition by L-tryptophan, 10 mM L-glutamine, 200 μM chorismate", "value": 5.5, "unit": "µM"}, {"measurement": "kcat", "setting": "[1]; purified enzyme from E. coli", "value": 0.46, "unit": "s⁻¹"}]}
{"molecule": "B4", "values": [{"measurement": "amounts of tryptophan", "setting": "soy seed", "value": "very high amounts of tryptophan"}]}
